In patent publication US20120039915A1 (University of California, published 2012):

B1: GB8 scFv (scFv)
scFv: QVQLVESGGGLVQPGGSLRLSCAASGFTFSNYALTWVRQAPGKGLEWVSAISGSGGSTYYADSVKGRFTISRDTSKNTLYLQMNSLRAEDTAVYYCARGGYSYGPPFDYWGQGTLVTVSSGGGGSGGGGSGGGGSSELTQDPAVSVALGQTVRITCQGDSLRSYYASWYQQKPGQAPVLVIYGKNKRPSGIPDRFSGSSSGNTASLTITGAQAVDEADYHCNSRDSSGNHVVFGGGTKLTV
notes: His-tagged soluble scFv in the immunoprecipitation; also called GB8 phage antibody; not shown: lette
B2: GC4 scFv (scFv)
scFv: QVQLVESGGGLVQPGGSLRLSCAASGFTFGTYDMSWVRQAPGKGLEWVSGISGSGGSTYYADSVKGRFTISRDNSKNTVYLQMNSLRVEDTAVYYCARGGWYSDNWGQGTLVTVSSGGGGSGGGGSGGGGSSELTQDPAVSVALGQTVRITCQGGSLRSYYASWYQQKPGQAPLLVIYGENNRPSGIPDRFSGSSSGNTASLTITGAQAEDEADYYCHSRDSSGNHVVFGGGTKLTV
notes: Human scFv from a naive fd phage library; also called GC4 phage antibody; parental GC4 scFv; not shown: lette
B3: GB1 scFv (scFv)
scFv: QVQLVQSGGGLVKPGGSLRLSCAASGFTFSNAWMNWVRQAPGKGLEWVGRIKSKTDGGTTDYAAPVNGRFTISRDDSKNTLYLQMNSLKTEDTAVYSCTTENWGSVNWGQGTLVTVSSGGGGSGGGGSGGGGSNFMLTQPPSVSVAPGKTASLTCGYNIGTKSVHWYQQKPGQAPVVVVHDDSDRPSGIPERFSGSNSGTTATLTISRVEAGDEADYYCQAWDSISEEVVFGGGTKLTV
notes: On fd phage in the Caco-2 FACS; His-tagged soluble scFv in the immunoprecipitation; also called GB1 phage antibody; not shown: lette
B4: GH9 scFv (scFv)
scFv: QVQLQESGGGLVKPGGSLRLSCAASGFTFSSYSMNWVRQAPGQGLEWVSSISSRNSDIYYADSVRGRFTISRDNAKNSLYLQMNSLRAEDTAVYYCARDSSGYSSSPSDYWGQGTLVTVSSGGGGSGGGGSGGGGSNFMLTQPPSVSVAPGKTASLTCGGYNIGTKSVHWYQQKPGQAPVVVVHDDSDRPSGIPERFSGSNSGTTATLTISRVEAGDEADYYCQAWDSISEEVVFGGGTKLTV
notes: On fd phage in FACS; His-tagged soluble scFv in the immunoprecipitation; also called GH9 phage antibody; not shown: lette

Columns and labels:
CD133 [1] = biological target: T1, CD133 (human, UniProt O43490 20-865); experiment: FACS, phage on Caco-2 cells
T1 construct: whole, on cells; also called CD133 molecule
T1 sequence (looked up): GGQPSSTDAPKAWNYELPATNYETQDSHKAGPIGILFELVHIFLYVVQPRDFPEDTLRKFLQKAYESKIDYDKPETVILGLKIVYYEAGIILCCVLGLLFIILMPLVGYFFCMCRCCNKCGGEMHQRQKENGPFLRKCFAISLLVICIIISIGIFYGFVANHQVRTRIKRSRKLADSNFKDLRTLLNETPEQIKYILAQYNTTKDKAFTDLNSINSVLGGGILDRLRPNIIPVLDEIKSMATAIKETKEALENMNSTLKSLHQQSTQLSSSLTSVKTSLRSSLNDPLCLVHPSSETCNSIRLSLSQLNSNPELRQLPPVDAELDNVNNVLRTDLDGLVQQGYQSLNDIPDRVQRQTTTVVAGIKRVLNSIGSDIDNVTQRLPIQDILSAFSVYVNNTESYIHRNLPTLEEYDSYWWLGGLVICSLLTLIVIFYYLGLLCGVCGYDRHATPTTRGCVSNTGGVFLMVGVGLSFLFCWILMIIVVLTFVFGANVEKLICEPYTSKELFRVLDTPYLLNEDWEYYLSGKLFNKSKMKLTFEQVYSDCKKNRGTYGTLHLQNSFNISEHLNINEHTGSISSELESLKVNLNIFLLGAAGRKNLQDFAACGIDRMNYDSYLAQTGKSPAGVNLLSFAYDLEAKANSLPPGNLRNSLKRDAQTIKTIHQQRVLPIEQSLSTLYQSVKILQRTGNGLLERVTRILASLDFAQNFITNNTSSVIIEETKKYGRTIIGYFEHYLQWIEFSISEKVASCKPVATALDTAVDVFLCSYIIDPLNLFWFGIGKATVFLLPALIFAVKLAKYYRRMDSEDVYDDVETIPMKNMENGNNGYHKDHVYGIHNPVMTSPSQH
Protocol: FIG. 3 depicts the results of co-expression of the CD133 epitope and phage-bound antigens. FIG. 3A depicts FITC-labeled phage antibodies and biotin-labeled anti-CD133 mAb were studied on GBM sphere cells. A typical result from studies on GBMx-1 sphere cells is shown. Percentage of total cells is indicated for each quadrant. […] PE-conjugated control mouse IgG and anti-CD133 mAb were incubated with Caoa-2 cells and binding detected by FACS. […] Four tumor sphere cell-targeting phage (GB1, GB8, GH9 and GC4) were tested. Negative control: a non-binding phage. Positive control: a Caco-2 binding phage preparation. FIG. 3D depicts the results of antibody immunoprecipitation of Caco-2 lysates. Lane 1: immunoprecipitation with anti-CD133 mAb. Lane 2: immunoprecipitation with the GC4 antibody. All immunoprecipitation products were analyzed on a SDS-PAGE gel followed by Western blot with anti-CD133 antibody and horseradish peroxidase-conjugated anti-mouse secondary antibody. Arrow indicates CD133. Molecular weights (kd) are indicated.
Phage antibody binding to antigens other than CD133: Caco-2 cells that express high levels of CD133 were incubated with phage antibodies along with the positive control PE-conjugated anti-CD133 antibody at 4° C. for 1 h, washed twice with PBS, and bound phage detected by biotin-labeled anti-fd antibody followed by streptavidin-R-PE, and analyzed by FACS. For immunoprecipitation studies, 10⁵ Caco-2 cells were lysed in 1% NP40, 0.15 M NaCl, and 0.01 M sodium phosphate, pH 7.2, on ice for 2 h. Lysates were precleared and incubated with 50 μg/ml scFvs bearing a hexahistidine tag at 4° C. for 1 h, and captured onto Ni-NTA+ beads (Qiagen). […] All immunoprecipitation products were analyzed by 4-20% gradient SDS-PAGE, followed by Western blot with mouse anti-CD133 followed by horseradish peroxidase-conjugated goat anti-mouse antibody (Jackson ImmunoResearch) using ECL Plus™ (GE Healthcare).

CD133 [2] = biological target: T1, CD133; experiment: FACS, biotin-labelled GC4 scFv on Caco2 cells (CD133-high by paragraph 182); '-' means lack of significant binding
Protocol: For Table 1-6, biotin-labeled GC4 scFvs were tested for binding to a panel of human cell lines (all were tumor lines, except for BPH-1) by FACS. “+” indicates binding and “-” indicated lack of significant binding. Du-145 cells were derived from brain metastasis of prostate tumor.

[3] = biological target: T2, antigen bound by the GC4 antibody on GBM tumor sphere cells (target antigen not determined); experiment: FACS on GBM tumor sphere cells at RT, MFI fitted (apparent dissociation constant)
T2 construct: also called GBM tumor spheres; GBM sphere cells
Protocol: FIG. 7A depicts the production of recombinant GC4 IgG. H: heavy chain. L: light chain. MW: molecular weight. […] Ctr: a non-binding human IgG1. […] FACS analysis was performed to determine binding of GC4 IgG1 (1 μg/ml) in the presence of the parental GC4 or four other scFvs (50 μg/ml each). Binding was detected by fluorescently labeled anti-human IgG antibody. Normalized mean fluorescence intensities were used to compare binding results. Error bars indicate standard deviations of duplicated experiments. *, P<0.05. […] MFI values were fitted using GraphPad. FIG. 7E depicts the binding constant of GC4 scFv to GBM tumor spheres. […] MFI values were fitted using GraphPad.
Affinity measurement: Varying concentrations of GC4 IgG1s were incubated with 10⁵ GBM cells at RT for 1 h in PBS containing 0.25% BSA. Bound IgG1s were detected by PE-conjugated goat anti-human antibody (Jackson ImmunoResearch) following incubation at RT for 30 min. Apparent dissociation constant was determined by FACS with mean fluorescence intensity (MFI) data fitted using GraphPad Prism (GraphPad Software). The apparent dissociation constant of GC4 scFv was measured similarly except that bound scFvs were detected by mouse anti-hexahistidine antibody (AbD Serotec/MorphoSys) followed by PE-conjugated goat anti-mouse antibody (Jackson ImmunoResearch).

Binder | binding result (CD133 [1]) | binding result (CD133 [2]) | Kd [3]
B1 | no binding | – | –
B2 | – | no binding | 222 nM
B3 | no binding | – | –
B4 | no binding | – | –
